According to patent publication US7183387 (Genentech, dated 2007):

T1: human FcγRIIA-R131 α subunit extracellular domain-His6-GST fusion (human, UniProt P12318 34-217)
T1 construct: ECD-6His-GST fusion made in 293 cells; also called FcγRIIA-Arg131; not shown: glutathione S transferase (GST)
T1 sequence: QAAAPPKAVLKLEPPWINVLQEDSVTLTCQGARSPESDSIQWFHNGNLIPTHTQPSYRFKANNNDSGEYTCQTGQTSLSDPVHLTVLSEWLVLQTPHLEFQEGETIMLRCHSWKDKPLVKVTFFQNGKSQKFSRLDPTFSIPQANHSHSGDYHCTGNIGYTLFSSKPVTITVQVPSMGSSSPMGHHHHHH

B1: anti-IgE E27 IgG1 variant K334(353)A (antibody)
heavy: not shown
light: DIQLTQSPSSLSASVGDRVTITCRASKPVDGEGDSYLNWYQQKPGKAPKLLIYAASYLESGVPSRFSGSGSGTDFTLTISSLQPEDFATYYCQQSHEDPYTFGQGTKVEIKRTVAAPSVFIFPPSDEQLKSGTASVVCLLNNFYPREAKVQWKVDNALQSGNSQESVTEQDSKDSTYSLSSTLTLSKADYEKHKVYACEVTHQGLSSPVTKSFNRGEC
notes: Fc variant of E27; also called IG2 55; G55
B2: anti-IgE E27 IgG1 variant K290(307)R (antibody)
heavy: not shown
light: B1 light
notes: Fc variant of E27; also called IG2 78
B3: anti-IgE E27 IgG1 variant K290(307)A (antibody)
heavy: not shown
light: B1 light
notes: Fc variant of E27; also called IG2 30; G30
B4: anti-IgE E27 IgG1 variant E333(352)R (antibody)
heavy: not shown
light: B1 light
notes: Fc variant of E27
B5: anti-IgE E27 IgG1 variant K290(307)E (antibody)
heavy: not shown
light: B1 light
notes: Fc variant of E27; also called IG2 77
B6: anti-IgE E27 IgG1 variant E333(352)K (antibody)
heavy: not shown
light: B1 light
notes: Fc variant of E27
B7: anti-IgE E27 IgG1 variant K290(307)S (antibody)
heavy: not shown
light: B1 light
notes: Fc variant of E27; also called IG2 75
B8: anti-IgE E27 IgG1 variant S298(317)A/E333(352)A/K334(353)A (antibody)
heavy: EVQLVESGGGLVQPGGSLRLSCAVSGYSITSGYSWNWIRQAPGKGLEWVASIKYSGETKYNPSVKGRITISRDDSKNTFYLQMNSLRAEDTAVYYCARGSHYFGHWHFAVWGQGTLVTVSSASTKGPSVFPLAPSSKSTSGGTAALGCLVKDYFPEPVTVSWNSGALTSGVHTFPAVLQSSGLYSLSSVVTVPSSSLGTQTYICNVNHKPSNTKVDKKVEPKSCDKTHTCPPCPAPELLGGPSVFLFPPKPKDTLMISRTPEVTCVVVDVSHEDPEVKFNWYVDGVEVHNAKTKPREEQYNATYRVVSVLTVLHQDWLNGKEYKCKVSNKALPAPIAATISKAKGQPREPQVYTLPPSREEMTKNQVSLTCLVKGFYPSDIAVEWESNGQPENNYKTTPPVLDSDGSFFLYSKLTVDKSRWQQGNVFSCSVMHEALHNHYTQKSLSLSPGK
light: B1 light
notes: Fc variant of E27; also called IG2 110; Ser298Ala/Glu333Ala/Lys334Ala
B9: anti-IgE E27 IgG1 variant D265(278)A (antibody)
heavy: not shown
light: B1 light
notes: Fc variant of E27; also called IG2 14; G14
B10: anti-IgE E27 IgG1 variant K334(353)D (antibody)
heavy: not shown
light: B1 light
notes: Fc variant of E27; also called IG2 140
B11: anti-IgE E27 IgG1 variant K290(307)G (antibody)
heavy: not shown
light: B1 light
notes: Fc variant of E27; also called IG2 177
B12: anti-IgE E27 IgG1 variant E293(310)Q (antibody)
heavy: not shown
light: B1 light
notes: Fc variant of E27
B13: anti-IgE E27 IgG1 variant E333(352)A (antibody)
heavy: not shown
light: B1 light
notes: Fc variant of E27; also called IG2 54; G54
B14: anti-IgE E27 IgG1 variant E333(352)D (antibody)
heavy: not shown
light: B1 light
notes: Fc variant of E27; also called Glu333Asp
B15: anti-IgE E27 IgG1 variant E333(352)Q (antibody)
heavy: not shown
light: B1 light
notes: Fc variant of E27
B16: anti-IgE E27 IgG1 variant K290(307)Q (antibody)
heavy: not shown
light: B1 light
notes: Fc variant of E27; also called IG2 73
B17: anti-IgE E27 IgG1 variant E333(352)S (antibody)
heavy: not shown
light: B1 light
notes: Fc variant of E27; also called IG2 143
B18: anti-IgE E27 IgG1 variant E333(352)N (antibody)
heavy: not shown
light: B1 light
notes: Fc variant of E27; also called Glu333Asn
B19: anti-IgE E27 IgG1 variant K334(353)E (antibody)
heavy: not shown
light: B1 light
notes: Fc variant of E27
B20: anti-IgE E27 IgG1 variant S298(317)V (antibody)
heavy: not shown
light: B1 light
notes: Fc variant of E27; also called IG2 218
B21: anti-IgE E27 IgG1 variant P331(350)S (antibody)
heavy: not shown
light: B1 light
notes: Fc variant of E27; also called IG2 198; Pro331Ser
B22: anti-IgE E27 IgG1 variant R292(309)A (antibody)
heavy: not shown
light: B1 light
notes: Fc variant of E27; also called IG2 31; G31
B23: anti-IgE E27 IgG1 variant P331(350)N (antibody)
heavy: not shown
light: B1 light
notes: Fc variant of E27; also called IG2 199
B24: anti-IgE E27 IgG1 variant R292(309)K (antibody)
heavy: not shown
light: B1 light
notes: Fc variant of E27; also called IG2 80
B25: anti-IgE E27 IgG1 variant R292(309)Q (antibody)
heavy: not shown
light: B1 light
notes: Fc variant of E27; also called IG2 82
B26: anti-IgE E27 IgG1 variant R292(309)H (antibody)
heavy: not shown
light: B1 light
notes: Fc variant of E27; also called IG2 81
B27: anti-IgE E27 IgG1 variant P331(350)E (antibody)
heavy: not shown
light: B1 light
notes: Fc variant of E27; also called IG2 200
B28: anti-IgE E27 IgG1 variant P331(350)K (antibody)
heavy: not shown
light: B1 light
notes: Fc variant of E27
B29: anti-IgE E27 IgG1 variant R292(309)N (antibody)
heavy: not shown
light: B1 light
notes: Fc variant of E27; also called IG2 83

The binders below were run against T2, human FcγRIIIA-V158 α subunit extracellular domain-His6-GST fusion (human, UniProt P08637 17-208) (assay: ELISA, IgG complex, receptor coated).
T2 construct: ECD-6His-GST fusion made in 293 cells; also called FcγRIIIA-Val158; not shown: glutathione S transferase (GST)
T2 sequence (P08637 other isoform, or with tags, fused parts or gaps, form in doubt): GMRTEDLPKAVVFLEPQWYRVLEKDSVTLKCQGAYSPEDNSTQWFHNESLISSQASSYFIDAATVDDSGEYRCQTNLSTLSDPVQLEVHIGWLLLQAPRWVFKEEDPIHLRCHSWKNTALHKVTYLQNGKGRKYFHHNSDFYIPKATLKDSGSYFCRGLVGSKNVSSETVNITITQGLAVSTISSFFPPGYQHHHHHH

| ratio of binding, variant/native IgG1 (mean) | Binder |
| --- | --- |
| 1.07 ratio | B1 |
| 1.07 ratio | B2 |
| 1.12 ratio | B3 |
| 0.92 ratio | B4 |
| 0.98 ratio | B5 |
| 0.88 ratio | B6 |
| 1.05 ratio | B7 |
| 1.19 ratio | B8 |
| 0.01 ratio | B9 |
| 1.07 ratio | B10 |
| 1.11 ratio | B11 |
| 1 ratio | B12 |
| 1.1 ratio | B13 |
| 1 ratio | B14 |
| 1.05 ratio | B15 |
| 1.02 ratio | B16 |
| 0.99 ratio | B17 |
| 0.64 ratio | B18 |
| 1.17 ratio | B19 |
| 0.88 ratio | B20 |

These binders were tested against T1, human FcγRIIA-R131 α subunit … (assay: ELISA, IgG complex, receptor coated).

| ratio of binding, variant/native IgG1 (mean) | Binder |
| --- | --- |
| 1.01 ratio | B1 |
| 1.05 ratio | B2 |
| 1.29 ratio | B3 |
| 1 ratio | B21 |
| 0.75 ratio | B4 |
| 1.1 ratio | B5 |
| 0.27 ratio | B22 |
| 1.27 ratio | B7 |
| 0.35 ratio | B8 |
| 0.07 ratio | B9 |
| 0.51 ratio | B10 |
| 0.86 ratio | B23 |
| 1.07 ratio | B11 |
| 0.85 ratio | B12 |
| 0.71 ratio | B24 |
| 0.92 ratio | B13 |
| 0.47 ratio | B25 |
| 0.21 ratio | B26 |
| 1.06 ratio | B27 |
| 0.7 ratio | B15 |
| 0.94 ratio | B28 |
| 1.17 ratio | B16 |
| 0.59 ratio | B18 |
| 0.74 ratio | B19 |
| 0.54 ratio | B29 |

Each binder was assayed against T3, human FcγRIIIA-F158 α subunit extracellular domain-His6-GST fusion (human, UniProt P08637 17-208) (assay: ELISA, IgG complex, receptor coated).
T3 construct: ECD-6His-GST fusion made in 293 cells; also called FcγRIIIA-Phe158; not shown: glutathione S transferase (GST)
T3 sequence (P08637 other isoform, or with tags, fused parts or gaps, form in doubt): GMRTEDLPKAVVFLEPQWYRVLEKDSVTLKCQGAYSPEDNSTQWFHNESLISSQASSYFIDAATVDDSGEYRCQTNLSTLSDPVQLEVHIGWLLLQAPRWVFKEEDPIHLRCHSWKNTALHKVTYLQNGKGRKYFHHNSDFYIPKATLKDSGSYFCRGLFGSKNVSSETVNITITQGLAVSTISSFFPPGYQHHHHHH

| ratio of binding, variant/native IgG1 (mean) | Binder |
| --- | --- |
| 1.39 ratio | B1 |
| 1.08 ratio | B2 |
| 1.28 ratio | B3 |
| 0.86 ratio | B21 |
| 0.84 ratio | B4 |
| 1.3 ratio | B5 |
| 0.9 ratio | B22 |
| 0.85 ratio | B6 |
| 1.26 ratio | B7 |
| 1.66 ratio | B8 |
| 0.09 ratio | B9 |
| 1.13 ratio | B10 |
| 0.23 ratio | B23 |
| 1.23 ratio | B11 |
| 0.99 ratio | B12 |
| 1.15 ratio | B24 |
| 1.27 ratio | B13 |
| 0.45 ratio | B25 |
| 1.26 ratio | B14 |
| 0.92 ratio | B26 |
| 0.42 ratio | B27 |
| 1.1 ratio | B15 |
| 0.33 ratio | B28 |
| 1.4 ratio | B16 |
| 0.94 ratio | B17 |
| 0.56 ratio | B18 |
| 1.3 ratio | B19 |
| 0.88 ratio | B29 |
| 0.33 ratio | B20 |

The binders below were run against T2, human FcγRIIIA-V158 α subunit … (assay: ELISA, IgG monomer, receptor coated).

| ratio of binding, variant/native IgG1 (mean) | Binder |
| --- | --- |
| 1.6 ratio | B1 |
| 1.24 ratio | B2 |
| 1.13 ratio | B3 |
| 0.54 ratio | B21 |
| 0.83 ratio | B4 |
| 1.5 ratio | B5 |
| 0.94 ratio | B22 |
| 0.81 ratio | B6 |
| 1.62 ratio | B7 |
| 0.24 ratio | B23 |
| 2.29 ratio | B11 |
| 0.97 ratio | B12 |
| 1.64 ratio | B24 |
| 1.29 ratio | B13 |
| 0.56 ratio | B25 |
| 1.7 ratio | B14 |
| 1.21 ratio | B26 |
| 0.36 ratio | B27 |
| 1 ratio | B15 |
| 0.26 ratio | B28 |
| 1.3 ratio | B16 |
| 1.07 ratio | B17 |
| 0.56 ratio | B18 |
| 2.75 ratio | B19 |
| 0.91 ratio | B29 |
| 0.39 ratio | B20 |
